B1: UvrA, individually purified (natural protein, E. coli, UniProt P0A698 1-940, looked up)
chain: MDKIEVRGARTHNLKNINLVIPRDKLIVVTGLSGSGKSSLAFDTLYAEGQRRYVESLSAYARQFLSLMEKPDVDHIEGLSPAISIEQKSTSHNPRSTVGTITEIHDYLRLLFARVGEPRCPDHDVPLAAQTVSQMVDNVLSQPEGKRLMLLAPIIKERKGEHTKTLENLASQGYIRARIDGEVCDLSDPPKLELQKKHTIEVVVDRFKVRDDLTQRLAESFETALELSGGTAVVADMDDPKAEELLFSANFACPICGYSMRELEPRLFSFNNPAGACPTCDGLGVQQYFDPDRVIQNPELSLAGGAIRGWDRRNFYYFQMLKSLADHYKFDVEAPWGSLSANVHKVVLYGSGKENIEFKYMNDRGDTSIRRHPFEGVLHNMERRYKETESSAVREELAKFISNRPCASCEGTRLRREARHVYVENTPLPAISDMSIGHAMEFFNNLKLAGQRAKIAEKILKEIGDRLKFLVNVGLNYLTLSRSAETLSGGEAQRIRLASQIGAGLVGVMYVLDEPSIGLHQRDNERLLGTLIHLRDLGNTVIVVEHDEDAIRAADHVIDIGPGAGVHGGEVVAEGPLEAIMAVPESLTGQYMSGKRKIEVPKKRVPANPEKVLKLTGARGNNLKDVTLTLPVGLFTCITGVSGSGKSTLINDTLFPIAQRQLNGATIAEPAPYRDIQGLEHFDKVIDIDQSPIGRTPRSNPATYTGVFTPVRELFAGVPESRARGYTPGRFSFNVRGGRCEACQGDGVIKVEMHFLPDIYVPCDQCKGKRYNRETLEIKYKGKTIHEVLDMTIEEAREFFDAVPALARKLQTLMDVGLTYIRLGQSATTLSGGEAQRVKLARELSKRGTGQTLYILDEPTTGLHFADIQQLLDVLHKLRDQGNTIVVIEHNLDVIKTADWIVDLGPEGGSGGGEILVSGTPETVAECEASHTARFLKPML
B2: UvrB, individually purified (natural protein, E. coli, UniProt P0A8F8 1-673, looked up)
chain: MSKPFKLNSAFKPSGDQPEAIRRLEEGLEDGLAHQTLLGVTGSGKTFTIANVIADLQRPTMVLAPNKTLAAQLYGEMKEFFPENAVEYFVSYYDYYQPEAYVPSSDTFIEKDASVNEHIEQMRLSATKAMLERRDVVVVASVSAIYGLGDPDLYLKMMLHLTVGMIIDQRAILRRLAELQYARNDQAFQRGTFRVRGEVIDIFPAESDDIALRVELFDEEVERLSLFDPLTGQIVSTIPRFTIYPKTHYVTPRERIVQAMEEIKEELAARRKVLLENNKLLEEQRLTQRTQFDLEMMNELGYCSGIENYSRFLSGRGPGEPPPTLFDYLPADGLLVVDESHVTIPQIGGMYRGDRARKETLVEYGFRLPSALDNRPLKFEEFEALAPQTIYVSATPGNYELEKSGGDVVDQVVRPTGLLDPIIEVRPVATQVDDLLSEIRQRAAINERVLVTTLTKRMAEDLTEYLEEHGERVRYLHSDIDTVERMEIIRDLRLGEFDVLVGINLLREGLDMPEVSLVAILDADKEGFLRSERSLIQTIGRAARNVNGKAILYGDKITPSMAKAIGETERRREKQQKYNEEHGITPQGLNKKVVDILALGQNIAKTKAKGRGKSRPIVEPDNVPMDMSPKALQQKIHELEGLMMQHAQNLEFEEAAQIRDQLHQLRELFIAAS

Assays:
[1] = molecular target: the molecule itself; assay: cross-linking
[2] = molecular target: B1; assay: cross-linking

Row | binding result [2] | Binder | binding result [1]
1 | – | B1 | binds
2 | binds | B2 | –
